Key:
[1] = target: 0N4 R tau K298 mutated to alanine (human) (UniProt P10636); experiment: flow cytometry on fixed, permeabilised Expi293 cells expressing the mutant, 10 µg/ml VR7082
[2] = target: 0N4 R tau V300 mutated to alanine (human) (UniProt P10636); experiment: as above
0N4 R tau V300 mutated to alanine (human), sequence (P10636 other isoform, or with tags, fused parts or gaps, change not shown): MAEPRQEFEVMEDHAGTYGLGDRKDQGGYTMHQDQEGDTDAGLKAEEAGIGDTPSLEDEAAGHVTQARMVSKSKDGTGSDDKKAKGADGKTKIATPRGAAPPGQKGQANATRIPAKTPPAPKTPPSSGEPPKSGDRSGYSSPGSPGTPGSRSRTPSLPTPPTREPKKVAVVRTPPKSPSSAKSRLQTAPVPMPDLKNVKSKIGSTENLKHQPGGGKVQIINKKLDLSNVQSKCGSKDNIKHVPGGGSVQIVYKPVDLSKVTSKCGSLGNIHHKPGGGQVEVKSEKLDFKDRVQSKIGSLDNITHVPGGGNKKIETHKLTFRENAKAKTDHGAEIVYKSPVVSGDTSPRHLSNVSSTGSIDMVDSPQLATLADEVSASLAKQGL

0N4 R tau K298 mutated to alanine (human), sequence (P10636 other isoform, or with tags, fused parts or gaps, change not shown): as above

B1: VR7082 rabbit IgG (antibody, V domains shown)
VH: QSVEESGGRLVTPGTPLTLTCTVSGIDLSNYAMIWVRQAPGEGLEYIGIISSTGNTFYATWAKGRFTISKTSTTVDLKITSPTAEDTATYFCARDTNSDSHYGWEAFNIWGPGTLVTVSS
VL: AVVLTQTPASVEAAVGGTVSINCQASEDIESYLAWYQQKPGQRPKLLIYRASTLASGVSSRFKGSGSGTEYTLTISGVECADAATYYCQEGYSIHVDNVFGGGTEVVVK
B1 gave a decrease of binding relative to 0N4 R tau [1] of 50% and a decrease of binding relative to 0N4 R tau [2] of 50%.

Source: patent US20240409624A1
